The values that follow come from paper PMC4570195, “Self-sorting heterodimeric coiled coil peptides with defined and tuneable self-assembly properties” (Scientific Reports, 2015).

The labels stand for the following.
T1: KV (N-terminal acetylation)
T1 construct: de novo designed 28-residue coiled coil peptide, four heptads (gabcdef); also called KV peptide; source: synthetic peptide (solid phase, Fmoc), purified by reverse phase HPLC
T1 peptide: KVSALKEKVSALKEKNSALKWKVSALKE

T2: EV-Cy5 (Cy5 at the N-terminus (Cy5-NHS used instead of acetic anhydride))
T2 construct: de novo designed 28-residue coiled coil peptide; also called EV modified at the N-terminus with Cy5; source: synthetic peptide (solid phase, Fmoc), purified by reverse phase HPLC
T2 peptide: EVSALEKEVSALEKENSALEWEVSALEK

B1: EV (peptide)
peptide: Ac-EVSALEKEVSALEKENSALEWEVSALEK-NH2
notes: de novo designed 28-residue coiled coil peptide, four heptads (gabcdef); also called EV peptide; source: synthetic peptide (solid phase, Fmoc), purified by reverse phase HPLC
B2: EI (peptide)
peptide: Ac-EIAALEKEIAALEKENAALEWEIAALEK-NH2
notes: de novo designed 28-residue coiled coil peptide, four heptads (gabcdef); also called EI peptide; source: synthetic peptide (solid phase, Fmoc), purified by reverse phase HPLC
B3: KI (peptide)
peptide: Ac-KIAALKEKIAALKEKNAALKWKIAALKE-NH2
notes: de novo designed 28-residue coiled coil peptide, four heptads (gabcdef); also called KI peptide; source: synthetic peptide (solid phase, Fmoc), purified by reverse phase HPLC

Cy5 = fluorescent dye, coupled as Cy5-NHS Where only a bound is given, the exact number is not on record here.

The target of assay [1] is EV-Cy5. The assay is described as follows: Fluorescence of EV-Cy5 upon addition of EI and KI. The source says:
To further experimentally verify that the peptides undergo thermodynamic self-sorting we modified EV at the N-terminus with a fluorescent dye (Cy5). Although not considered very environmentally sensitive, cyanine dyes tethered to the terminus of single-stranded DNA display significant changes in fluorescence quantum yield, emission lifetime, and fluorescence anisotropy decay upon hybridization with a complementary DNA strand[34][35]. […] This change in binding partner was also supported by simulations (Fig. 6b). The smaller amount of monomeric EV-Cy5 seen in the experiment after addition of EI is presumably an effect of the kinetics involved in the exchange of partners in the heterodimer. The simulations were run until equilibrium whereas the experimental data was acquired after 30 minutes incubation and the exchange was likely not fully completed within this time frame.
Figure 6 (a) Fluorescence spectra and (b) change in normalized intensity at 667 nm for EV-Cy5 upon addition of EI and KI. Addition of the complimentary peptide KI, thus forming EVKI dimers, results in an increase in fluorescence intensity. Subsequent addition of EI reduces the fluorescence intensity due to formation of EIKI dimers, leaving free EV-Cy5. […]
Fmoc-protected amino acids were purchased from Iris Biotech GmbH. […] Peptide concentrations were determined by UV absorbance (ε280(Trp) = 5690 M^−1 cm^−1). […]

Assay [2] deals with B3. As to the kind of experiment: circular dichroism, thermal denaturation; Kd at 75 °C, as used for the self-sorting simulations. Conditions: both partners purified.
In assay [3] the target is T1, KV. The assay is described as follows: method of continuous variation by circular dichroism; molar ratio of each monomer varied, ellipticity at 222 nm measured. Conditions: both partners purified.
The target of assay [4] is B3. The description is as above. Conditions: both partners purified.
Assay [5] has as its target T1, KV. As to the kind of experiment: circular dichroism, thermal denaturation; thermal denaturation at different peptide monomer concentrations, Tm related to Kd; Kd at 20 °C; 10 mM phosphate buffer pH 7. Conditions: both partners purified. (Circular dichroism is widely used to follow secondary structure.)
In assay [6] the target is B3. The assay is described as above. Conditions: both partners purified.
The target in assay [7] is T1, KV. As to the kind of experiment: circular dichroism, thermal denaturation; Kd at 75 °C, as used for the self-sorting simulations. Conditions: both partners purified.
Assay [8] concerns the target T2, EV-Cy5. As to the kind of experiment: fluorescence emission intensity of a Cy5-labelled peptide; EV-Cy5 5 μM, KI 5 μM added, then EI 5 μM; 30 minutes incubation; intensity at 667 nm. Conditions: both partners purified.

Broadly, the Kd is the constant that tells how readily two partners part at equilibrium. Higher therefore signals lower affinity. Usually stoichiometry N stands for a count of units in the complex or per binding partner.

Take “EV-Cy5: EV modified at the N-terminus with a fluorescent dye (Cy5) (Cy5-EVSALEKEVSALEKENSALEWEVSALEK-NH2)”: the “change in fluorescence emission intensity, EI added prior to KI” value in assay [1] (EI added to EV-Cy5 prior to KI, otherwise identical conditions) was “a slight decrease in fluorescence intensity”. In addition, the “change in fluorescence emission intensity” value in assay [1] (EV-Cy5 5 μM, KI 5 μM then EI 5 μM, 30 min incubation, 667 nm, PB pH 7) is given as “a drop in emission intensity, close to the original intensity of the monomeric EV-Cy5”.

For B1, the results for the Kd in assay [2], in assay [5] and in assay [6] were above 200 nM, 1400 nM and 85 nM, respectively. Moreover, the “stoichiometry N” value in assay [3] and in assay [4] was 1 throughout.

In the case of B2, the Kd is above 200 nM in assay [7], 72 nM in assay [5] and below 0.1 nM in assay [6]. The “stoichiometry N” value in assay [3] and in assay [4] was 1 each time.

B3: the binding result in assay [8] is “binds”.
